Patent US20250076311A1 (Chugai, published 2025)
Changes are numbered by the printed parent chain. Names and notes keep the numbering of the source.

Assays:
[1] = biological target: T1, cynomolgus monkey FcγRIIa3 extracellular domain, His-tagged (cynomolgus monkey); test: SPR (BIACORE), antibody captured on chip, soluble FcgR as analyte, 25 C
T1 construct: also called cyno FcgRIIa3; cynoFcγRIIa3; not shown: His-tag added to the C-terminus
T1 chain: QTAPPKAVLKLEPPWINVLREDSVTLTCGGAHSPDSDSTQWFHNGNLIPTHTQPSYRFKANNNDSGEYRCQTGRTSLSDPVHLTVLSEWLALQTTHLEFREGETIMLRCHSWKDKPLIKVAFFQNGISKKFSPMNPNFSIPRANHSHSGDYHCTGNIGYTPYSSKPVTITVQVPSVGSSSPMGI
Method: (§1) The kinetic analysis of interactions between these antibodies and FcγR was carried out using BIACORE® T200 or BIACORE® 4000 (GE Healthcare). HBS-EP+ (GE Healthcare) was used as the running buffer, and the measurement temperature was set to 25° C. […] After the measurement, the antibody captured on the chip was washed off by allowing reaction with 10 mM glycine-HCl, pH1.5 and 25 mM NaOH so that the chip was regenerated and used repeatedly. The sensorgrams obtained as measurement results were analyzed by the 1:1 Langmuir binding model using the BIACORE® Evaluation Software to calculate the binding rate constant ka (L/mol/s) and dissociation rate constant kd (1/s), and the dissociation constant KD (mol/L) was calculated from these values. […] Regarding such interactions, KD values were calculated using the following 1:1 binding model described in BIACORE® T100 Software Handbook BR1006-48 Edition AE.

[2] = biological target: T2, human FcγRIIb extracellular domain, His-tagged (human, UniProt P31994 43-217); test: as above
T2 construct: also called human FcgRIIb; not shown: His-tag added to the C-terminus
T2 sequence: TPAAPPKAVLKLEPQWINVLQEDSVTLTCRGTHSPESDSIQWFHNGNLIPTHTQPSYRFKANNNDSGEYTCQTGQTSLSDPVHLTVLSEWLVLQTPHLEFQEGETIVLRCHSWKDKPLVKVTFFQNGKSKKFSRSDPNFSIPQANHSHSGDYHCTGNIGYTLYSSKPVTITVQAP
Method: as §1

[3] = biological target: T3, human FcγRIIaH extracellular domain with C-terminal His-tag (human, UniProt P12318 34-217); test: SPR (Biacore), KD of SG1 / KD of variant
T3 construct: also called human FcgRIIaH; FcγRIIa (type H)
T3 sequence: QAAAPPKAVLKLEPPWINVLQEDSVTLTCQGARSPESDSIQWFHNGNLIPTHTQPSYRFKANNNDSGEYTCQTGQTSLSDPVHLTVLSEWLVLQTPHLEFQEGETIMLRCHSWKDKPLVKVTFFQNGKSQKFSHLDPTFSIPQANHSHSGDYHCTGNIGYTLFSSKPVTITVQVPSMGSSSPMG

[4] = biological target: T4, cynomolgus monkey FcγRIIa1 extracellular domain with C-terminal His-tag (cynomolgus monkey); test: SPR (Biacore), KD of SG1 / KD of variant
T4 construct: also called cyno FcgRIIa1; cynoFcγRIIa1
T4 chain: T1 chain with T95P, A121T, S128A, P133H, N135D

[5] = biological target: T5, cynomolgus monkey FcγRIIIaS extracellular domain with C-terminal His-tag (cynomolgus monkey, UniProt Q8SPW2 21-206 at identity 1.00)); test: SPR (Biacore), antibody captured, FcgR analyte
T5 construct: also called cyno FcgRIIIaS; cynoFcγRIIIaS
T5 chain: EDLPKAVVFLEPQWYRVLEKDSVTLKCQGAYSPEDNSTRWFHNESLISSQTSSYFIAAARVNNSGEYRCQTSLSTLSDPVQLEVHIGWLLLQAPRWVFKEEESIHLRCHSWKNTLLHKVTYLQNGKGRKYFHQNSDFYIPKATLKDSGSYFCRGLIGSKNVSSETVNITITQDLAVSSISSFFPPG

[6] = biological target: T6, cynomolgus monkey FcγRIIa3 extracellular domain with C-terminal His-tag (cynomolgus monkey); test: SPR (Biacore), KD of SG1 divided by KD of variant
T6 construct: also called cyno FcgRIIa3; cynoFcγRIIa3
T6 chain: T1 chain
Method: as §1

[7] = biological target: T7, human FcγRIIaR extracellular domain with C-terminal His-tag (human, UniProt P12318 34-217); test: SPR (Biacore), KD of SG1 divided by KD of variant
T7 construct: also called human FcgRIIaR; FcγRIIa (type R)
T7 chain: T3 sequence with H134R
Method: as §1

[8] = biological target: T8, human FcγRIIb extracellular domain with C-terminal His-tag (human, UniProt P31994 43-217); test: SPR (Biacore), KD of SG1 divided by KD of variant
T8 construct: also called human FcgRIIb
T8 sequence: T2 sequence
Method: as §1

[9] = biological target: T9, cynomolgus monkey FcγRIIb extracellular domain with C-terminal His-tag (cynomolgus monkey); test: SPR (Biacore), KD of SG1 divided by KD of variant
T9 construct: also called cyno FcgRIIb; cynoFcγRIIb
T9 chain: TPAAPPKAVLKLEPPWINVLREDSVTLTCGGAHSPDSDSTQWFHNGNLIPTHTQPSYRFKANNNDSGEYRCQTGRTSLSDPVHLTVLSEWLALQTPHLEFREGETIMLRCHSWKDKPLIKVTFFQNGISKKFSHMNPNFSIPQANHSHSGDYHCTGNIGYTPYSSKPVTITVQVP
Method: as §1

[10] = biological target: T10, cynomolgus monkey FcγRIIa2 extracellular domain with C-terminal His-tag (cynomolgus monkey); test: SPR (Biacore), KD of SG1 divided by KD of variant
T10 construct: also called cyno FcgRIIa2; cynoFcγRIIa2
T10 chain: T1 chain with I127K, K130N, P133H, R142Q
Method: as §1

[11] = biological target: T11, human FcγRIIaH extracellular domain with C-terminal His-tag (human, UniProt P12318 34-217); test: SPR (Biacore), antibody captured, FcgR as analyte
T11 construct: also called human FcgRIIaH; FcγRIIa (type H)
T11 sequence: T3 sequence

[12] = biological target: T10, cynomolgus monkey FcγRIIa2 …; test: SPR (Biacore), antibody captured, FcgR as analyte
[13] = biological target: T12, cynomolgus monkey FcγRIIa2 extracellular domain with C-terminal His-tag (cynomolgus monkey); test: SPR (Biacore), KD of SG1 / KD of variant
T12 construct: also called cyno FcgRIIa2; cynoFcγRIIa2
T12 chain: T1 chain with I127K, K130N, P133H, R142Q

[14] = biological target: T13, cynomolgus monkey FcγRIIa3 extracellular domain with C-terminal His-tag (cynomolgus monkey); test: SPR (Biacore), antibody captured, FcgR analyte
T13 construct: also called cyno FcgRIIa3; cynoFcγRIIa3
T13 chain: T1 chain

[15] = biological target: T9, cynomolgus monkey FcγRIIb extracellular …; test: SPR (Biacore), antibody captured, FcgR as analyte
[16] = biological target: T14, human FcγRIIIaV extracellular domain with C-terminal His-tag (human, UniProt P08637 17-208); test: SPR (Biacore), antibody captured, FcgR as analyte
T14 construct: also called human FcgRIIIaV
T14 sequence (P08637 17-208 F176V): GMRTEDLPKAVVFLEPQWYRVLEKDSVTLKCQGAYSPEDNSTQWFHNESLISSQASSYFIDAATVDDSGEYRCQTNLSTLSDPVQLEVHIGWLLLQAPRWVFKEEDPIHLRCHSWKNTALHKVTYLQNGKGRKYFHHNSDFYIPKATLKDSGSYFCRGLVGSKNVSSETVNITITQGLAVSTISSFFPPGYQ

[17] = biological target: T15, cynomolgus monkey FcγRIIb extracellular domain with C-terminal His-tag (cynomolgus monkey); test: SPR (Biacore), KD of SG1 / KD of variant
T15 construct: also called cyno FcgRIIb; cynoFcγRIIb
T15 chain: T9 chain

[18] = biological target: T16, human FcγRIIaR extracellular domain with C-terminal His-tag (human, UniProt P12318 34-217); test: SPR (Biacore), KD of SG1 / KD of variant
T16 construct: also called human FcgRIIaR; FcγRIIa (type R)
T16 chain: T3 sequence with H134R

[19] = biological target: T3, human FcγRIIaH extracellular domain …; test: SPR (Biacore), antibody captured, FcgR analyte
[20] = biological target: T17, cynomolgus monkey FcγRIIa1 extracellular domain with C-terminal His-tag (cynomolgus monkey); test: SPR (Biacore), antibody captured, FcgR as analyte
T17 construct: also called cyno FcgRIIa1; cynoFcγRIIa1
T17 chain: T1 chain with T95P, A121T, S128A, P133H, N135D

B1: M103205H795-MY265/M103202L889-SK1 (antibody, human IgG1, kappa, name in EU numbering)
heavy: QVTLKESGPVLVKPTETLTLTCTVSGIDLSHDDISWVRQAPGKGLEWVGIISYAGSTYYASWAKGRLTISKDTSKNQVVLTMTNMDPVDTATYYCARGVPAYSHGGDLWGQGTLVTVSSASTKGPSVFPLAPSSKSTSGGTAALGCLVKDYFPEPVTVSWNSGALTSGVHTFPAVLQSSGLYSLSSVVTVPSSSLGTQTYICNVNHKPSNTKVDKKVEPKSCDKTHTCPPCPAPELLTGPSVFLFPPKPKDTLMISRTPEVTCVVVDVSDEDPEVKFNWYVDGVEVHNAKTKPREEQYNSTYRVVSVLTVLHQDWLNGKEYKCKVSNKALPKPIEKTISKAKGQPREPQVYTLPPSREEMTKNQVSLTCLVKGFYPSDIAVEWESNGQPENNYKTTPPVLDSDGSFFLYSKLTVDKSRWQQGNVFSCSVMHEALHNHYTQKSLSLSP
light: DIVMTQSPATLSLSPGERATLSCTSSQSVYHANWLSWFQQKPGQPPKLLIYWASTLAYGVPSRFSGSGSGTDFTLTISSLQPEDAATYYCAGGYGGGRYAFGQGTKVEIKRTVAAPSVFIFPPSDEQLKSGTASVVCLLNNFYPREAKVQWKVDNALQSGNSQESVTEQDSKDSTYSLSSTLTLSKADYEKHKVYACEVTHQGLSSPVTKSFNRGEC
notes: also called MS1032LO06-MY265
For B1, the Kd [1] was 43000 nM and the Kd [2] was 2700 nM.

B2: M103205H795-MY472/M103202L889-SK1 (antibody)
chain 1: B1 heavy with A233S
chain 2: B1 light
For B2, the “KD fold (SG1 = 1)” value [3] was 2.8 fold, the “KD fold (SG1 = 1)” value [4] was 1.3 fold and the Kd [5] was 2300 nM.

B3: M103205H795-MY283 / M103202L889-SK1 (antibody, human IgG1, kappa, name in EU numbering)
heavy: B1 heavy with Q297L
light: B1 light
B3 was tested, and the “KD fold (SG1 = 1)” value [6] was 3.9 fold and the “KD fold (SG1 = 1)” value [7] was 3.1 fold.

B4: M103205H795-MY527 / M103202L889-SK1 (antibody, human IgG1, kappa, name in EU numbering)
heavy: B1 heavy with A233T, Q297L
light: B1 light
With B4 the “KD fold (SG1 = 1)” value [8] was 3.3 fold, the “KD fold (SG1 = 1)” value [9] was 5.3 fold and the “KD fold (SG1 = 1)” value [10] was 3.9 fold.

B5: M103205H795-MY521 / M103202L889-SK1 (antibody)
heavy: B1 heavy with P234D, Q297L
light: B1 light
notes: 'Q235L' copied as printed, probably Q295L
B5 was tested, and the Kd [11] was 290 nM, the Kd [12] was 3300 nM and the “KD fold (SG1 = 1)” value [8] was 3.1 fold. For the same binder, the “KD fold (SG1 = 1)” value [9] was 2.3 fold and the “KD fold (SG1 = 1)” value [7] was 3.7 fold.

B6: M103205H795-MY447/M103202L889-SK1 (antibody, human IgG1, kappa)
heavy: B1 heavy with P234I
light: B1 light
notes: Substitutions in EU numbering on SG1
With B6 the “KD fold (SG1 = 1)” value [13] was 5.6 fold and the Kd [14] was 1500 nM.

B7: M103205H795-MY529 / M103202L889-SK1 (antibody, human IgG1, kappa, name in EU numbering)
heavy: B1 heavy with L236W, Q297L
light: B1 light
With B7 the Kd [15] was 300 nM and the “KD fold (SG1 = 1)” value [9] was 5 fold.

B8: M103205H795-MY450/M103202L889-SK1 (antibody, human IgG1, kappa)
heavy: B1 heavy with P234M
light: B1 light
notes: as for B6
In the case of B8, the “KD fold (SG1 = 1)” value [4] is reported as 2.5 fold and the Kd [5] is reported as 1300 nM.

B9: M103205H795-MY523 / M103202L889-SK1 (antibody, human IgG1, kappa, name in EU numbering)
heavy: B1 heavy with A233G, S241V, Q297L
light: B1 light
B9 was tested, and the Kd [15] was 480 nM and the “KD fold (SG1 = 1)” value [7] was 5.2 fold.

B10: M103205H795-MY388 (first row so labelled: G236L/H268D/Q295L/K326T/A330K) / M103202L889-SK1 (antibody, human IgG1, kappa, name in EU numbering)
heavy: B1 heavy with T238L, Q297L, K328T
light: B1 light
notes: The label MY388 is printed for two different variants; also called MY388 (first of two rows with this label)
In the case of B10, the Kd [16] is reported as 2.4 nM and the Kd [15] is reported as 1600 nM.

B11: M103205H795-MY446/M103202L889-SK1 (antibody, human IgG1, kappa)
heavy: B1 heavy with P234H
light: B1 light
notes: as for B6
With B11 the “KD fold (SG1 = 1)” value [4] was 1.5 fold.

B12: M103205H795-MY475/M103202L889-SK1 (antibody)
heavy: B1 heavy with A233W
light: B1 light
notes: as for B6
With B12 the “KD fold (SG1 = 1)” value [13] was 5.1 fold, the “KD fold (SG1 = 1)” value [17] was 6.7 fold and the “KD fold (SG1 = 1)” value [18] was 5.2 fold. For the same binder, the Kd [19] was 900 nM and the Kd [14] was 2500 nM.

B13: M103205H795-MY531 / M103202L889-SK1 (antibody, human IgG1, kappa, name in EU numbering)
heavy: B1 heavy with L236W, K328T
light: B1 light
With B13 the “KD fold (SG1 = 1)” value [10] was 5.5 fold.

B14: M103205H795-MY380 / M103202L889-SK1 (antibody, human IgG1, kappa, name in EU numbering)
heavy: B1 heavy with T238N, D270E, P398K
light: B1 light
For B14, the Kd [20] was 930 nM and the “KD fold (SG1 = 1)” value [6] was 5.2 fold.
